These results are taken from patent US6306580A, “Preparation of human papillomavirus E1 having helicase activity and method therefor” (priority 1999, dated 2001).

Read-outs that look alike come from different tables or passages of the source.

One data set deals with T1, HPV-11 E1 helicase (Human papillomavirus 11, UniProt P04014).
T1 construct: made in house; host or cells: SF21 insect cells, recombinant baculovirus (Bac-to-Bac, pFASTBAC1)
Briefly: E1 helicase SPA high-throughput assay, inhibition (IC50 curves). In kind it is biochemical, human papillomavirus type 11. From the text: In this assay, the duplex DNA substrate consists of M13 single-stranded DNA (about 8000 bases) to which is annealed a 19 base oligodeoxynucleotide (see FIG. 6). This partial duplex is extended to 24 bases with the incorporation of [^33 P]-labeled dATP by a reaction with the Klenow fragment of DNA polymerase I. Helicase activity results in the separation of this radiolabeled oligo from the M13 DNA. In the absence of a functional helicase, the double-stranded DNA substrate is stable for several hours at the assay temperature.
To detect activity, a second 24-base deoxyoligonucleotide, complementary to the substrate oligo, is added to the reaction mixture in a second step. […]
In the third step, streptavidin-coated SPA beads (Amersham Life Science, code TRKQ7030) are added to the mixture. […] Thus radiolabeled oligo annealed to the biotinylated oligo will be detected, whereas unreacted substrate still hybridized to M13 is not in close proximity to the beads and will not be detected.
In the presence of an inhibitor, less substrate is unwound, so a lower signal is detected. […] The M13 DNA competes with the labeled M13 substrate and inhibits the signal detected. […]
Assay buffer, used for all dilutions, consisted of 20 mM MES, pH 7.0, 10% glycerol, 1.0 mM DTT, and 0.05 mM EDTA. […] Sufficient E1 is used to give approximately 20% unwinding (as determined in Example 9). […]

For data set [1], the system named is partial duplex DNA substrate. Conditions: Yang, PNAS (1993), assayed at 32°; cited from earlier work.
In data set [2] the target is HPV-11 E2 protein (human papillomavirus type 11) (UniProt P04015). In words: E2-dependent E1 DNA binding assay: E1/E2/ori complex with radiolabeled origin probe, captured with K72 antiserum on protein A-SPA beads, scintillation counting.
In data set [3] the test system is partial duplex DNA substrate. In words: Helicase specific activity (unwinding of partial duplex DNA), this work. The format is biochemical. Particulars: 37°, enzyme concentration greater than substrate. The method, then: The substrate for the analytical helicase assay consisted of a […] oligonucleotide (GTAAAACGACCAGTGCCAAGC) (SEQ ID NO. 11) end-labeled using [^33 P]ATP and polynucleotide kinase, annealed to M13mp18. Combined helicase/ATPase reactions contained 800 or 1600 ng of E1, 2 mM MgCl2, 1 mM ATP, and 1 μM helicase substrate (concentration in nucleotides) in a total volume of 80 μL of helicase assay buffer (20 mM MES, pH 7.0, 1 mM DTT, 0.05 mM EDTA, 10% glycerol). Reactions were incubated for 2 h at 37° and then placed on ice. […]
Helicase activity was quantitated as follows:
A separate reaction mixture, containing no enzyme was heated to 95° for 10 min., and the resulting free substrate oligonucleotide (completely denatured) was detected as described for reaction mixtures. […] Quantitation of unwinding is calculated relative to the boiled sample with background subtracted.
In all cases the enzyme concentration was greater than the substrate concentration and the substrate was partial duplex DNA. […] The SV-40 TAg was also assessed in the literature and V of 50 and 80 % unwinding/μm protein/min were obtained from these groups respectively (Goetz, JBC (1988); Stahl, EMBO (1986)). […]

For `CC[n+]1c(-c2ccccc2)c2cc(N)ccc2c2ccc(N)cc21` [ethidium bromide], the IC50 (in general, the concentration that gives 50% inhibition) against HPV-11 E1 helicase was roughly 4 µM.
For “BPV E1: bovine papillomavirus E1 helicase, literature value (Yang, PNAS 1993)”, the “Helicase Activity V (% unwinding/μM protein/min)” value in data set [1] is on record as 2.9 % unwinding/μM protein/min.
With “HPV-11 His-E1 protein (wild type) (enzyme)”, the signal over background (fold) in data set [2] was 20 to 30 fold.

B1: HPV-11 E1: His-tagged E1 helicase of human papillomavirus type 11, low-salt nuclear extraction, Ni affinity purified (SEQ ID NO.26) (protein)
chain: MADDSGTENEGSGCTGWFMVEAIVEHTTGTQISEDEEEEVEDSGYDMVDFIDDRHITQNSVEAQALFNRQEADAHYATVQDLKRKYLGSPYVSPISNVANAVESEISPRLDAIKLTTQPKKVKRRLFETRELTDSGYGYSEVEAATQVEKHGDPENGGDGEERDTGRDIEGEGVEHREAEAVDDSTREHADTSGILELLKCKDIRSTLHGKFKDCFGLSFVDLIRPFKSDRTTCADWVVAGFGIHHSIADAFQKLIEPLSLYAHIQWLTNAWGMVLLVLIRFKVNKSRCTVARTLGTLLNIPENHMLIEPPKIQSGVAALYWFRTGISNASTVIGEAPEWITRQTVIEHSLADSQFKLTEMVQWAYDNDICEESEIAFEYAQRGDFDSNARAFLNSNMQAKYVKDCAIMCRHYKHAEMKKMSIKQWIKYRGTKVDSVGNWKPIVQFLRHQNIEFIPFLSKLKLWLHGTPKKNCIAIVGPPDTGKSCFCMSLIKFLGGTVISYVNSCSHFWLQPLTDAKVALLDDATQPCWTYMDTYMRNLLDGNPMSIDRKHRALTLIKCPPLLVTSNIDISKEEKYKYLHSRVTTFTFPNPFPFDRNGNAVYELSDANWKCFFERLSSSLDIEDSEDEEDGSNSQAFRCVPGSVVRTL
modifications: His tag
As to B1, in data set [3], the “Helicase Activity V (% unwinding/μM protein/min)” value was 2.5 % unwinding/μM protein/min.

B2: HPV-6a E1: His-tagged E1 helicase of human papillomavirus type 6a purified according to the invention (SEQ ID NO.27) (protein)
chain: MADDSGTENEGSGCTGWFMVEAIVQHPTGTQISDDEDEEVEDSGYDMVDFIDDSNITHNSLEAQALFNRQEADTHYATVQDLKRKYLGSPYVSPINTIAEAVESEISPRLDAIKLTRQPKKVKRRLFQTRELTDSGYGYSEVEAGTGTQVEKHGVPENGGDGQEKDTGRDIEGEEHTEAEAPTNSVREHAGTAGILELLKCKDLRAALLGKFKECFGLSFIDLIRPFKSDKTTCLDWVVARFGIHHSISEAFQKLIEPLSLYAHIQWLTNAWGMVLLVLLRFKVNKSRSTVARTLATLLNIPENQMLIEPPKIQSGVAALYWFRTGISNASTVIGEAPEWITRQTVIEHGLADSQFKLTEMVQWAYDNDICEESEIAFEYAQRGDFDSNARAFLNSNMQAKYVKDCATMCRHYKHAEMRKMSIKQWIKHRGSKIEGTGNWKPIVQFLRHQNIEFIPFLTKFKLWLHGTPKKNCIAIVGPPDTGKSYFCMSLISFLGGTVISHVNSSSHFWLQPLVDAKVALLDDATQPCWIYMDTYMRNLLDGNPMSIDRKHKALTLIKCPPLLVTSNIDITKEDKYKYLHTRVTTFTFPNPFPFDRNGNAVYELSNTNWKCFFERLSSSLDIQDSEDEEDGSNSQAFRCVPGTVVRTL
modifications: His tag
In the case of B2, the “Helicase Activity V (% unwinding/μM protein/min)” value in data set [3] is listed as 2.3 % unwinding/μM protein/min.
